B1: cathepsin G (enzyme, human, UniProt P08311 21-244, looked up)
chain: IIGGRESRPHSRPYMAYLQIQSPAGQSRCGGFLVREDFVLTAAHCWGSNINVTLGAHNIQRRENTQQHITARRAIRHPQYNQRTIQNDIMLLQLSRRVRRNRNVNPVALPRAQEGLRPGTLCTVAGWGRVSMRRGTDTLREVQLRVQRDRQCLRIFGSYDPRRQICVGDRRERKAAFKGDSGGPLLCNNVAHGIVSYGKSSGVPPEVFTRVSSFLPWIRTTMRS
notes: cathepsin G (CTSG), human, purified from neutrophils, >95% pure by SDS-PAGE; also called CG; CTSG; source: purified from human neutrophils; bought: Athens Research & Technology
B2: cationic antimicrobial protein of 37kDa (CAP37) (natural protein, human, UniProt P20160 27-251, looked up)
chain: IVGGRKARPRQFPFLASIQNQGRHFCGGALIHARFVMTAASCFQSQNPGVSTVVLGAYDLRRRERQSRQTFSISSMSENGYDPQQNLNDLMLLQLDREANLTSSVTILPLPLQNATVEAGTRCQVAGWGSQRSGGRLSRFPRFVNVTVTPEDQCRPNNVCTGVLTRRGGICNGDGGTPLVCEGLAHGVASFSLGPCGRGPDFFTRVALFRDWIDGVLNNPGPGPA
notes: cationic antimicrobial protein of 37kDa (CAP37, encoded by AZU1), human, purified from neutrophils, >95% pure by SDS-PAGE; also called AZU1; source: purified from human neutrophils; bought: Athens Research & Technology
B3: neutrophil elastase (enzyme)
chain: IVGGRRARPHAWPFMVSLQLRGGHFCGATLIAPNFVMSAAHCVANVNVRAVRVVLGAHNLSRREPTRQVFAVQRIFENGYDPVNLLNDIVILQLNGSATINANVQVAQLPAQGRRLGNGVQCLAMGWGLLGRNRGIASVLQELNVTVVTSLCRRSNVCTLVRGRQAGVCFGDSGSPLVCNGLIHGIASFVRGGCASGLYPDAFAPVAQFVNWIDSIIQ
modifications: native N-glycosylated, disulfide-bonded active enzyme from human neutrophils. Limits are not printed: the signal and activation dipeptide are removed (starts at 30), and the C-terminal propeptide is …

Legend:
Details in all cases: both partners purified
[1] = target: T1, Recombinant human RAGE Fc chimera (human, UniProt Q15109 23-342); assay: ELISA; CAP37, neutrophil elastase, cathepsin G or Aβ1-42 (0.5 μg/well) or BSA (1000 μg/well) coated on Maxisorp plates in PBS pH 7.4; RAGE Fc chimera 0–3.3 nM in PBST with 0.1% BSA, 37°C, 70 min; bound RAGE detected with goat anti-RAGE; BSA subtracted as background for KD
T1 construct: receptor for advanced glycation end products (RAGE), human, recombinant, fused to Fc; No catalogue number printed; also called receptor for advanced glycation end products; AGER; source: bought: R&D Systems
T1 sequence (Q15109 23-342, change not shown): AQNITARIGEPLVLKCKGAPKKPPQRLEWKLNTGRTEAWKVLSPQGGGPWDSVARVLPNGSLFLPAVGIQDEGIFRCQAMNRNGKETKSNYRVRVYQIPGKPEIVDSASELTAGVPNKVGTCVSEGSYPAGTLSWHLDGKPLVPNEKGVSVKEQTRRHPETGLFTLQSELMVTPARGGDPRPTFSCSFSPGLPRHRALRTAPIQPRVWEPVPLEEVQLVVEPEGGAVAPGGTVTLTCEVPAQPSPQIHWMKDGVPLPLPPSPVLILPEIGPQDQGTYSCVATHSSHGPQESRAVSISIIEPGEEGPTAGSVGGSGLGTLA

[2] = target: T2, Amyloid beta 1–42 (Aβ1–42) (UniProt P05067 672-713); assay: ELISA; CAP37, neutrophil elastase or cathepsin G (0.5 μg/well) or BSA (1000 μg/well) coated; Aβ1-42 0–111 nM in PBST with 0.1% BSA and protease inhibitor cocktail; bound Aβ1-42 detected with anti-APP/Aβ; BSA subtracted as background for KD
T2 construct: amyloid beta 1-42, the cut product of amyloid precursor protein (APP); numbers count on: the Aβ peptide; source: bought: Bachem (95.2% pure by HPLC), dissolved in 1 mM sodium hydroxide

[3] = target: T1, Recombinant human RAGE Fc chimera; assay: ELISA; competition: RAGE Fc chimera coated (0.5 μg/well, 83.3 nM); Aβ1-42 (11 nM) added at the same time as CAP37 (0–2.5 μM) or neutrophil elastase (0–0.5 μM); no protease inhibitors; bound Aβ1-42 detected with anti-APP/Aβ

Binder | Kd [1] [nM] | Kd [2] [nM] | IC50 [3] [nM]
B1 | 0.45 | 20.7 | –
B2 | 1.26 | 37.9 | 1280
B3 | 3.25 | – | –

Source: PMC5038948 (PLoS ONE, 2016)
